From patent EP2878677A1, “Activators of protein phosphatase 5” (Deutsches Zentrum für Neurodegenerative Erkrankungen e.V. …, priority 2013, dated 2015)

Target: PPH-5 (C. elegans protein phosphatase 5) (C. elegans)
Experiment: competition in sedimentation velocity AUC; 60 uM peptide, 300 nM YFP-Hsp90, 3 uM PPH-5; the peptide competes with YFP-Hsp90

sedimentation coefficient (s20,w) of the YFP-Hsp90/PPH-5 complex in presence of the peptide: 7.6 S
B1: C-terminal Hsp90/DAF-21 peptide (…) (peptide)
peptide: AEEDASRMEEVD
